{
  "source": "patent US9803013B2",
  "about": "“Biological materials and uses thereof” (BioInvent International AB, priority 2005, dated 2017)",
  "key": {"[1]": {"test_system": "THP-1 monocytic leukaemia cells", "experiment": "IgG binding to tumour cell line, flow cytometry", "design": "species or system human", "excerpt": "(§1) FIG. 6—Binding of B1, B11, C11 IgG, to tumour cell lines of different origin. The antigen distribution of antigens targeted by the B1, B11, and C11 antibodies on different carcinoma cell lines was investigated by flow-cytometry.\n(§2) The antigen distribution of human antibody targeted antigens, mainly for B11, on different carcinoma cell lines was investigated. Cells (MCF-7 and MDA MB 435S breast carcinoma, JAR and JEG-3 chorio-carcinoma, A549 lung carcinoma, TCC-SUP urinary bladder carcinoma, MDA MB 435 melanoma, HPAC, PANC-1 and BxPC-3 pancreatic carcinoma, PC-3 and DU145 prostate carcinoma, LS174 T, CaCo2, and Lovo colorectal carcinoma, and THP-1 monocytic leukaemia cells), were washed in PBS, and resuspended at 4×10^6 cells/ml in Complete Medium (200,000 cells/50 […] sample). […] Cells were incubated with either of the antibodies for 1 hour on ice, washed by resuspension in PBS/BSA 0.5%, centrifuged at 1200 rpm for 5 min, and complete aspiration of the supernatants was undertaken. Cells were incubated with PE-conjugated Goat F(ab′)2 anti-Human IgG (Caltag Laboratories, Cat no: H10104), diluted 1/50 in PBS/BSA 0.5%, for 30 min, on ice. Following resuspension of in 300 μl PBS/BSA 0.5%, cells were analysed for IgG binding using a FACScan instrument."}, "[2]": {"test_system": "LS174 T colorectal carcinoma", "experiment": "IgG binding to tumour cell line, flow cytometry", "design": "species or system human", "details": "compared to the prostate cancer cells", "excerpt": "as §1, §2"}, "[3]": {"test_system": "mouse, rat, rabbit, and cynomolgus monkey ICAM-1", "experiment": "BI-505 cross-reactivity to ICAM-1 of animal species used for toxicological studies", "type": "binding", "details": "animals commonly used for toxicological evaluation", "excerpt": "The cross reactivity of BI-505 to mouse, rat, rabbit, and cynomolgus monkey ICAM-1 was investigated using several methods (i.e. immunohistochemistry, flow cytometry, and enzyme-linked immunosorbent assay [ELISA]) and sources of target protein (tissue, ICAM-1 transfected cells, endogenous ICAM-1 expressing cells, and recombinant ICAM-1 protein). Polyclonal anti-mouse ICAM-1, anti-rat ICAM-1, anti-rabbit ICAM-1, and anti-cynomolgus ICAM-1 antibodies were used as positive controls in experiments. Isotype control human IgG1 was used as negative control for BI-505 and species matched polyclonal IgG lacking specificity for ICAM-1 served as negative controls for ICAM-1 specific polyclonal antibodies."}},
  "data": [
    {"molecule": "B11: fully human IgG1 antibody specific for ICAM-1; VH and VL sequences of FIG. 10 (SEQ ID NOs. 6 and 8) (antibody, listed as Homo sapiens, V domains shown) VH: EVQLLESGGGLVQPGGSLRLSCAASGFTFSNAWMSWVRQAPGKGLEWVAFIWYDGSNKYYADSVKGRFTISRDNSKNTLYLQMNSLRAEDTAVYYCARYSGWYFDYWGQGTLVTVSS VL: QSVLTQPPSASGTPGQRVTISCTGSSSNIGAGYDVHWYQQLPGTAPKLLIYDNNNRPSGVPDRFSGSKSGTSASLAISGLRSEDEADYYCQSYDSSLSAWLFGGGTKLTVLG", "values": [
      {"measurement": "binding / ICAM-1 expression", "setting": "[1]", "value": "did not express ICAM-1"},
      {"measurement": "binding / ICAM-1 expression", "setting": "[2]", "value": "lower intensity"},
      {"measurement": "cross-reactivity with animal ICAM-1", "setting": "[3]", "value": "does not, however, cross-react"}
    ]}
  ]
}
